Tests used:
Type in all cases: cell-based
[1] = tested on: glioblastoma cells; assay: Basal oxygen consumption in glioblastoma cells; settings: cells which express ApoO vs cells treated with shApoO (FIG. 14)
Description: Further, the inventors decided to investigate the effect of transforming gliobastoma cells so that they express ApoO. For this purpose, glioblastoma cells were transformed with an adeno-associated virus 9 comprising a polynucleotide encoding ApoO.
The inventors compared the oxygen consumption after treating glioblastoma cells with a short hairpin RNA (shApoO) silencing the expression of ApoO.

[2] = tested on: Caspase-3; assay: Caspase-3 enzymatic activity in H9c2 cardiac myoblasts
Description: After ethical committee approval, all patients in this study gave written consent for sample collection and molecular analysis prior to inclusion. Patients were carefully selected by physicians from the Department of Cardiology, Toulouse University Hospital, prior to coronary by-pass surgery. Bioinformatics. Microarray expression data from human heart samples were downloaded from the GEO repository (GSE1145). This series consisted of 107 myocardial samples collected from patients undergoing cardiac transplantation whose failure arises from different etiologies (e.g. idiopathic dilated cardiomyopathy, ischemic cardiomyopathy, valvular cardiomyopathy, and hypertrophic cardiomyopathy) and from “normal” organ donors whose hearts cannot be used for transplants. Arrays were intensity normalized and hierarchical clustering (average group linkage, Pearson correlation, threshold r=0.8) was applied to identify groups of co-expressed genes. ApoO expression levels were plotted for the 107 human hearts tested and used to define relevant molecular pathways using both Toppgene and Ingenuity Pathway Analysis (Ingenuity systems, Redwood City, Calif., USA). ApoO subcellular localization was predicted using Mitopred, mitoprot and YLoc. Animals: All animal Studies followed the INSERM Institute Animal Facility guidelines and were approved by the animal care committees of the INSERM I2MC UMR 1048. All animal procedures were performed according to the guidelines of the French Ministry of Agriculture. Animals were housed at the Toulouse I2MC animal facility in a room lit 12 h per day (6 AM-6 PM) at an ambient temperature of 22+/−1° C. […] All ApoO sequences within the expression vectors were verified by DNA double strand sequencing using ABI PRISM®BigDye™ Terminator version 3.1 Ready reaction cycle sequencing kit (Life Technologies SAS, Villebon sur Yvette) and loaded on an ABI 3130XL DNA sequencing instrument (Life Technologies SAS, Villebon sur Yvette). […]

[3] = tested on: MPTP; assay: Mitochondrial calcein-cobalt assay of MPTP opening; settings: cultured cardiac myoblasts
[4] = tested on: cardiac myoblasts; assay: Reactive oxygen species assessment (carboxy-DCFDA) in cardiac myoblasts; settings: ApoO cells vs control (FIG. 4D)
Description: After ethical committee approval, all patients in this study gave written consent for sample collection and molecular analysis prior to inclusion. Patients were carefully selected by physicians from the Department of Cardiology, Toulouse University Hospital, prior to coronary by-pass surgery. Bioinformatics. Microarray expression data from human heart samples were downloaded from the GEO repository (GSE1145). This series consisted of 107 myocardial samples collected from patients undergoing cardiac transplantation whose failure arises from different etiologies (e.g. idiopathic dilated cardiomyopathy, ischemic cardiomyopathy, valvular cardiomyopathy, and hypertrophic cardiomyopathy) and from “normal” organ donors whose hearts cannot be used for transplants. Arrays were intensity normalized and hierarchical clustering (average group linkage, Pearson correlation, threshold r=0.8) was applied to identify groups of co-expressed genes. […] All ApoO sequences within the expression vectors were verified by DNA double strand sequencing using ABI PRISM®BigDye™ Terminator version 3.1 Ready reaction cycle sequencing kit (Life Technologies SAS, Villebon sur Yvette) and loaded on an ABI 3130XL DNA sequencing instrument (Life Technologies SAS, Villebon sur Yvette). […]

B1: ApoO: 198-amino acid apolipoprotein, SEQ ID NO: 1; tested by overexpression from expression vectors or transgene (protein, listed as Homo sapiens)
chain: MFKVIQRSVGPASLSLLTFKVYAAPKKDSPPKNSVKVDELSLYSVPEGQSKYVEEARSQLEESISQLRHYCEPYTTWCQETYSQTKPKMQSLVQWGLDSYDYLQNAPPGFFPRLGVIGFAGLIGLLLARGSKIKKLVYPPGFMGLAASLYYPQQAIVFAQVSGERLYDWGLRGYIVIEDLWKENFQKPGNVKNSPGTK
oxygen consumption [1]: more important
activity of Caspase-3 ([2]; ApoO cells vs control (FIG. 9g)): increase
apoptotic effect of increasing doses of palmitate (Caspase-3 activity) ([2]; ApoO overexpressing cells vs control (FIG. 9h)): dramatically amplified
kinetics of MPTP opening [3]: alters the kinetics of MPTP opening
intracellular reactive oxygen species (ROS) [4]: increases
